Assay results reported in patent publication US20240317894A1 (BOARD OF REGENTS OF THE UNIVERSITY OF OKLAHOMA, published 2024).

Biological target: T1, Fms-related tyrosine kinase 3 (FLT3) on FLT3-expressing target cells (human, UniProt P36888 27-993)
T1 sequence (looked up): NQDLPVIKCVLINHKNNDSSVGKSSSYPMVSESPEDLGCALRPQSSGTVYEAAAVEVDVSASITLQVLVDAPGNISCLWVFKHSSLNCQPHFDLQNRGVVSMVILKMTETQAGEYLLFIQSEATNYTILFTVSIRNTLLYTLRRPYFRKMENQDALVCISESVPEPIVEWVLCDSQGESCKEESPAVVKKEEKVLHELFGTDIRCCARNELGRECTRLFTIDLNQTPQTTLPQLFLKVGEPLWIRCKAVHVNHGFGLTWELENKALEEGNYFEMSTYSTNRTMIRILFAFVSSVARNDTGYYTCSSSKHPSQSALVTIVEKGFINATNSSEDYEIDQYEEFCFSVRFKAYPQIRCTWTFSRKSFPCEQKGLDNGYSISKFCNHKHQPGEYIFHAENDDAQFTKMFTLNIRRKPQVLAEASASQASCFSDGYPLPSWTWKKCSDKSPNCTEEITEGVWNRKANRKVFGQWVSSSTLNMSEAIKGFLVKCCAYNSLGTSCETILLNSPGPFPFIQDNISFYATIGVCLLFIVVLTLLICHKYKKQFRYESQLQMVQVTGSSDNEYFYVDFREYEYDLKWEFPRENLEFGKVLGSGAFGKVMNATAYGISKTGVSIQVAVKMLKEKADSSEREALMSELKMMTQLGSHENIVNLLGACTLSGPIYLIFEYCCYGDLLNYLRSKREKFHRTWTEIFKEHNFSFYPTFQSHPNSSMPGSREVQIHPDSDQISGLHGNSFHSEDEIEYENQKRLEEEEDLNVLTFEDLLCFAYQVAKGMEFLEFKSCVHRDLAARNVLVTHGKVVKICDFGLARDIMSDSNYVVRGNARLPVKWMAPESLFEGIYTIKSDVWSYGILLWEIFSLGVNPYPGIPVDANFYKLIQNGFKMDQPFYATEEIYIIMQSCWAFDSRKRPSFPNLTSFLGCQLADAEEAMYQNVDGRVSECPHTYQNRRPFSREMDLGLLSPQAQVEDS
Test: cell-based or functional assay

IL-2 expression (quantitative RT-PCR): > 5 fold
B1: FLCAR (chimeric antigen receptor with an FLT3-binding extracellular portion of human FLT3 ligand, CD28 transmembrane and costimulatory regions and a CD3-zeta … (other)
chain: TQDCSFQHSPISSDFAVKIRELSDYLLQDYPVTVASNLQDEELCGGLWRLVLAQRWMERLKTVAGSKMQGLLERVNTEIHFVTKCAFQPPPSCLRFVQTNISRLLQETSEQLVALKPWITRQNFSRCLELQCQGKHLCPSPLFPGPSKPFWVLVVVGGVLACYSLLVTVAFIIFWVRSKRSRLLHSDYMNMTPRRPGPTRKHYQPYAPPRDFAAYRSGSRSADAPAYQQGQNQLYNELNLGRREEYDVLDKRRGRDPEMGGKPRRKNPQEGLYNELQKDKMAEAYSEIGMKGERRRGKGHDGLYQGLSTATKDTYDALHMQALPPR
modifications: partially phosphorylated on tyrosine
